According to patent US20220040297A1 (Chugai, published 2022):
Positions count from the first letter of the chain named. Values belong to the binder of their own block, whether it stands above or below them.

Target: CD3ε homodimer protein (human, UniProt P07766 23-126, limits assumed)
Test: SPR, immobilized CD3ε homodimer;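 also: biacore T200 surface plasmon resonance at 25 °C, antibody variants flowed as analytes over amine-coupled CD3ε homodimer on a CM4 chip, variant binding amount divided by that of GLS3000 antibody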

Chain of CD3ε homodimer protein (P07766 23-126 limits assumed): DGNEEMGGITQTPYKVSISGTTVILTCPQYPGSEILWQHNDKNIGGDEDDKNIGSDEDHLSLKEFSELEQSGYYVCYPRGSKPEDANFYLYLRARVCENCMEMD

ratio of amounts bound (vs GLS3000): 1.04
B1: GLS3000 T31K (antibody, name in Kabat numbering, V domains shown)
VH: QVQLVESGGGVVQPGRSLRLSCAASGFTFSNAWMHWVRQAPGKGLEWVAQIKAKSNNYATYYAESVKGRFTISRDDSKNSLYLQMNSLKTEDTAVYYCRYVHYGAYYGVDAWGQGTTVTVSS
VL: DIVMTQSPLSLPVTPGEPASISCRSSQSLVHSNRNKYLHWYQQKPGQAPRLLIYKVSNRFSGVPDRFSGSGSGTDFTLKISRVEAEDVGVYYCGQGTQVPYTFGQGTKLEIK
notes: one-arm format as m2

ratio of amounts bound (vs GLS3000): 0.78
B2: GLS3000 V94H (antibody, name in Kabat numbering, V domains shown)
VH: B1 VH
VL: B1 VL with K36T, V99H
notes: one-arm format as m2

ratio of amounts bound (vs GLS3000): 0.18
B3: GLS3000 T92D (antibody, name in Kabat numbering, V domains shown)
VH: B1 VH
VL: B1 VL with K36T, T97D
notes: one-arm format as m2

ratio of amounts bound (vs GLS3000): 0.3
B4: GLS3000 V27cP (antibody, name in Kabat numbering, V domains shown)
VH: B1 VH
VL: B1 VL with V30P, K36T
notes: one-arm format as m2

ratio of amounts bound (vs GLS3000): 1.26
B5: GLS3000 V94P (antibody, name in Kabat numbering, V domains shown)
VH: B1 VH
VL: B1 VL with K36T, V99P
notes: one-arm format as m2

ratio of amounts bound (vs GLS3000): 0.58
B6: GLS3000 V94W (antibody, name in Kabat numbering, V domains shown)
VH: B1 VH
VL: B1 VL with K36T, V99W
notes: one-arm format as m2

ratio of amounts bound (vs GLS3000): 0.48
B7: GLS3000 V94G (antibody, name in Kabat numbering, V domains shown)
VH: B1 VH
VL: B1 VL with K36T, V99G
notes: one-arm format as m2

ratio of amounts bound (vs GLS3000): 0.57
B8: GLS3000 V94K (antibody, name in Kabat numbering, V domains shown)
VH: B1 VH
VL: B1 VL with K36T, V99K
notes: one-arm format as m2

ratio of amounts bound (vs GLS3000): 0.44
B9: GLS3000 V94M (antibody, name in Kabat numbering, V domains shown)
VH: B1 VH
VL: B1 VL with K36T, V99M
notes: one-arm format as m2

ratio of amounts bound (vs GLS3000): 1.05
B10: GLS3000 V94N (antibody, name in Kabat numbering, V domains shown)
VH: B1 VH
VL: B1 VL with K36T, V99N
notes: one-arm format as m2

ratio of amounts bound (vs GLS3000): 0.64
B11: GLS3000 V51E (antibody, name in Kabat numbering, V domains shown)
VH: B1 VH
VL: B1 VL with K36T, V56E
notes: one-arm format as m2

ratio of amounts bound (vs GLS3000): 0.33
B12: GLS3000 T92Y (antibody, name in Kabat numbering, V domains shown)
VH: B1 VH
VL: B1 VL with K36T, T97Y
notes: one-arm format as m2

ratio of amounts bound (vs GLS3000): 0.77
B13: GLS3000 V27cY (antibody, name in Kabat numbering, V domains shown)
VH: B1 VH
VL: B1 VL with V30Y, K36T
notes: one-arm format as m2

ratio of amounts bound (vs GLS3000): 0.31
B14: GLS3000 T31P (antibody, name in Kabat numbering, V domains shown)
VH: B1 VH
VL: B1 VL with K36P
notes: one-arm format as m2

ratio of amounts bound (vs GLS3000): 0.93
B15: GLS3000 V94S (antibody, name in Kabat numbering, V domains shown)
VH: B1 VH
VL: B1 VL with K36T, V99S
notes: one-arm format as m2

ratio of amounts bound (vs GLS3000): 0.51
B16: GLS3000 V27cS (antibody, name in Kabat numbering, V domains shown)
VH: B1 VH
VL: B1 VL with V30S, K36T
notes: one-arm format as m2

ratio of amounts bound (vs GLS3000): 0.63
B17: GLS3000 V94Y (antibody, name in Kabat numbering, V domains shown)
VH: B1 VH
VL: B1 VL with K36T, V99Y
notes: one-arm format as m2

ratio of amounts bound (vs GLS3000): 0.81
B18: GLS3000 V51I (antibody, name in Kabat numbering, V domains shown)
VH: B1 VH
VL: B1 VL with K36T, V56I
notes: one-arm format as m2

ratio of amounts bound (vs GLS3000): 0.32
B19: GLS3000 T31N (antibody, name in Kabat numbering, V domains shown)
VH: B1 VH
VL: B1 VL with K36N
notes: one-arm format as m2

ratio of amounts bound (vs GLS3000): 0.29
B20: GLS3000 Y32F (antibody, name in Kabat numbering, V domains shown)
VH: B1 VH
VL: B1 VL with K36T, Y37F
notes: one-arm format as m2

ratio of amounts bound (vs GLS3000): 0.34
B21: GLS3000 T92I (antibody, name in Kabat numbering, V domains shown)
VH: B1 VH
VL: B1 VL with K36T, T97I
notes: one-arm format as m2

ratio of amounts bound (vs GLS3000): 0.33
B22: GLS3000 V51D (antibody, name in Kabat numbering, V domains shown)
VH: B1 VH
VL: B1 VL with K36T, V56D
notes: one-arm format as m2

ratio of amounts bound (vs GLS3000): 0.84
B23: GLS3000 V27cL (antibody, name in Kabat numbering, V domains shown)
VH: B1 VH
VL: B1 VL with V30L, K36T
notes: one-arm format as m2

ratio of amounts bound (vs GLS3000): 0.31
B24: GLS3000 T97P (antibody, name in Kabat numbering, V domains shown)
VH: B1 VH
VL: B1 VL with K36T, T102P
notes: one-arm format as m2

ratio of amounts bound (vs GLS3000): 0.32
B25: GLS3000 V51P (antibody, name in Kabat numbering, V domains shown)
VH: B1 VH
VL: B1 VL with K36T, V56P
notes: one-arm format as m2

ratio of amounts bound (vs GLS3000): 0.96
B26: GLS3000 T92S (antibody, name in Kabat numbering, V domains shown)
VH: B1 VH
VL: B1 VL with K36T, T97S
notes: one-arm format as m2

ratio of amounts bound (vs GLS3000): 0.42
B27: GLS3000 T92L (antibody, name in Kabat numbering, V domains shown)
VH: B1 VH
VL: B1 VL with K36T, T97L
notes: one-arm format as m2

ratio of amounts bound (vs GLS3000): 0.17
B28: GLS3000 T92E (antibody, name in Kabat numbering, V domains shown)
VH: B1 VH
VL: B1 VL with K36T, T97E
notes: one-arm format as m2

ratio of amounts bound (vs GLS3000): 0.26
B29: GLS3000 T92P (antibody, name in Kabat numbering, V domains shown)
VH: B1 VH
VL: B1 VL with K36T, T97P
notes: one-arm format as m2

ratio of amounts bound (vs GLS3000): 0.96
B30: GLS3000 V27cI (antibody, name in Kabat numbering, V domains shown)
VH: B1 VH
VL: B1 VL with V30I, K36T
notes: one-arm format as m2

ratio of amounts bound (vs GLS3000): 0.93
B31: GLS3000 V94T (antibody, name in Kabat numbering, V domains shown)
VH: B1 VH
VL: B1 VL with K36T, V99T
notes: one-arm format as m2

ratio of amounts bound (vs GLS3000): 0.89
B32: GLS3000 V94D (antibody, name in Kabat numbering, V domains shown)
VH: B1 VH
VL: B1 VL with K36T, V99D
notes: one-arm format as m2

ratio of amounts bound (vs GLS3000): 0.66
B33: GLS3000 V94R (antibody, name in Kabat numbering, V domains shown)
VH: B1 VH
VL: B1 VL with K36T, V99R
notes: one-arm format as m2

ratio of amounts bound (vs GLS3000): 0.63
B34: GLS3000 T92A (antibody, name in Kabat numbering, V domains shown)
VH: B1 VH
VL: B1 VL with K36T, T97A
notes: one-arm format as m2

ratio of amounts bound (vs GLS3000): 0.84
B35: GLS3000 V51G (antibody, name in Kabat numbering, V domains shown)
VH: B1 VH
VL: B1 VL with K36T, V56G
notes: one-arm format as m2

ratio of amounts bound (vs GLS3000): 0.71
B36: GLS3000 V94F (antibody, name in Kabat numbering, V domains shown)
VH: B1 VH
VL: B1 VL with K36T, V99F
notes: one-arm format as m2

ratio of amounts bound (vs GLS3000): 0.76
B37: GLS3000 V94Q (antibody, name in Kabat numbering, V domains shown)
VH: B1 VH
VL: B1 VL with K36T, V99Q
notes: one-arm format as m2

ratio of amounts bound (vs GLS3000): 0.44
B38: GLS3000 V94L (antibody, name in Kabat numbering, V domains shown)
VH: B1 VH
VL: B1 VL with K36T, V99L
notes: one-arm format as m2

ratio of amounts bound (vs GLS3000): 0.61
B39: GLS3000 V27cE (antibody, name in Kabat numbering, V domains shown)
VH: B1 VH
VL: B1 VL with V30E, K36T
notes: one-arm format as m2

ratio of amounts bound (vs GLS3000): 0.32
B40: GLS3000 V27cD (antibody, name in Kabat numbering, V domains shown)
VH: B1 VH
VL: B1 VL with V30D, K36T
notes: one-arm format as m2

ratio of amounts bound (vs GLS3000): 1.05
B41: GLS3000 V94A (antibody, name in Kabat numbering, V domains shown)
VH: B1 VH
VL: B1 VL with K36T, V99A
notes: one-arm format as m2

ratio of amounts bound (vs GLS3000): 0.66
B42: GLS3000 V94I (antibody, name in Kabat numbering, V domains shown)
VH: B1 VH
VL: B1 VL with K36T, V99I
notes: one-arm format as m2

ratio of amounts bound (vs GLS3000): 0.5
B43: GLS3000 V94E (antibody, name in Kabat numbering, V domains shown)
VH: B1 VH
VL: B1 VL with K36T, V99E
notes: one-arm format as m2

ratio of amounts bound (vs GLS3000): 0.24
B44: GLS3000 Y32P (antibody, name in Kabat numbering, V domains shown)
VH: B1 VH
VL: B1 VL with K36T, Y37P
notes: one-arm format as m2

ratio of amounts bound (vs GLS3000): 0.23
B45: GLS3000 Y32D (antibody, name in Kabat numbering, V domains shown)
VH: B1 VH
VL: B1 VL with K36T, Y37D
notes: one-arm format as m2

ratio of amounts bound (vs GLS3000): 0.24
B46: GLS3000 Y32A (antibody, name in Kabat numbering, V domains shown)
VH: B1 VH
VL: B1 VL with K36T, Y37A
notes: one-arm format as m2
